From patent publication US20220153847A1 (Chugai, published 2022)

T1: HLA-DQ2.5 on HLA-DQ2.5-positive PBMC B cells (human, UniProt P01909 24-254; P01920 33-261)
T1 construct: whole, on cells; also called HLA-DQ2.5+ PBMC B cell
T1 MHC II alpha: not shown
T1 MHC II beta: not shown


Assays:
[1] = target: T2, HLA-DQ2.5/BC hordein peptide complex on Ba/F3 cells (human); test: FACS, Ba/F3 cells; IC17=0%, DQN0139bb=100%;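 also: flow cytometric binding of anti-HLA-DQ antibodies, each applied at 5 µg/mL for 30 min at room temperature, to Ba/F3 cell lines displaying HLA-DQ–peptide complexes; antibody tested at 5 microgram/mL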
T2 construct: whole, on cells; also called Ba/F3-HLA-DQ2.5/BC hordein
Text: (§1) The binding of anti-HLA-DQ antibodies to Ba/F3-HLA-DQ2.5, Ba/F3-HLA-DQ2.2, Ba/F3-HLA-DQ7.5, Ba/F3-HLA-DQ8, Ba/F3-HLA-DQ5.1, Ba/F3-HLA-DQ6.3, Ba/F3-HLA-DQ7.3, Ba/F3-HLA-DR, Ba/F3-HLA-DP, Ba/F3-HLA-DQ2.5/CLIP, Ba/F3-HLA-DQ2.5/HBV, Ba/F3-HLA-DQ2.5/Salmonella, Ba/F3-HLA-DQ2.5/TPO, Ba/F3-HLA-DQ2.5/M. bovis, Ba/F3-HLA-DQ2.5/alpha 1 gliadin, Ba/F3-HLA-DQ2.5/alpha 2 gliadin, Ba/F3-HLA-DQ2.5/gamma 1 gliadin, Ba/F3-HLA-DQ2.5/gamma 2 gliadin, Ba/F3-HLA-DQ2.5/omega 1 gliadin, Ba/F3-HLA-DQ2.5/omega 2 gliadin, Ba/F3-HLA-DQ2.5/BC hordein, Ba/F3-HLA-DQ2.5/alpha 3 gliadin, Ba/F3-HLA-DQ2.5/alpha 1b gliadin, Ba/F3-HLA-DQ2.5/gamma 4b gliadin, Ba/F3-HLA-DQ2.5/avenin 1, Ba/F3-HLA-DQ2.5/avenin 2, Ba/F3-HLA-DQ2.5/avenin 3, Ba/F3-HLA-DQ2.5/hordein 1, Ba/F3-HLA-DQ2.5/hordein 2, Ba/F3-HLA-DQ2.5/secalin 1, Ba/F3-HLA-DQ2.5/secalin 2, Ba/F3-HLA-DQ2.5/14mer 1, Ba/F3-HLA-DQ2.5/33mer gliadin, Ba/F3-HLA-DQ2.5/26mer gliadin, was tested. 5 microgram/mL of each of the anti-HLA-DQ antibodies was incubated with each cell line for 30 minutes at room temperature and washed with FACS buffer (2% FBS, 2 mM EDTA in PBS).

[2] = target: T3, HLA-DQ2.5/alpha 3 gliadin peptide complex on Ba/F3 cells (human); test: FACS, Ba/F3 cells; IC17=0%, DQN0139bb=100%;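 also: flow cytometric binding of anti-HLA-DQ antibodies, each applied at 5 µg/mL for 30 min at room temperature, to Ba/F3 cell lines displaying HLA-DQ–peptide complexes; antibody tested at 5 microgram/mL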
T3 construct: whole, on cells; also called Ba/F3-HLA-DQ2.5/alpha 3 gliadin; HLA-DQ2.5/a3 gliadin
Text: as §1

[3] = target: T4, HLA-DQ2.5/33mer gliadin peptide complex on Ba/F3 cells (human); test: FACS, Ba/F3 cells; IC17=0%, DQN0139bb=100%;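 also: flow cytometric binding of anti-HLA-DQ antibodies, each applied at 5 µg/mL for 30 min at room temperature, to Ba/F3 cell lines displaying HLA-DQ–peptide complexes; antibody tested at 5 microgram/mL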
T4 construct: whole, on cells; also called Ba/F3-HLA-DQ2.5/33mer gliadin
Text: as §1

[4] = target: T5, HLA-DQ2.5/hordein 1 peptide complex on Ba/F3 cells (human); test: FACS, Ba/F3 cells; IC17=0%, DQN0139bb=100%;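 also: flow cytometric binding of anti-HLA-DQ antibodies, each applied at 5 µg/mL for 30 min at room temperature, to Ba/F3 cell lines displaying HLA-DQ–peptide complexes; antibody tested at 5 microgram/mL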
T5 construct: whole, on cells; also called Ba/F3-HLA-DQ2.5/hordein 1
Text: as §1

[5] = target: T6, HLA-DQ2.5/gamma 2 gliadin peptide complex on Ba/F3 cells (human); test: FACS, Ba/F3 cells; IC17=0%, DQN0139bb=100%
T6 construct: whole, on cells; also called Ba/F3-HLA-DQ2.5/gamma 2 gliadin; HLA-DQ2.5/g2 gliadin
Text: as §1

[6] = target: T7, HLA-DQ2.5/omega 2 gliadin peptide complex on Ba/F3 cells (human); test: FACS, Ba/F3 cells; IC17=0%, DQN0139bb=100%
T7 construct: whole, on cells; also called Ba/F3-HLA-DQ2.5/omega 2 gliadin; HLA-DQ2.5/w2 gliadin
Text: as §1

[7] = target: T8, HLA-DQ2.5/alpha 1b gliadin peptide complex on Ba/F3 cells (human); test: FACS, Ba/F3 cells; IC17=0%, DQN0139bb=100%
T8 construct: whole, on cells; also called Ba/F3-HLA-DQ2.5/alpha 1b gliadin; HLA-DQ2.5/a1b gliadin
Text: as §1

[8] = target: T9, HLA-DQ2.5/14mer 1 peptide complex on Ba/F3 cells (human); test: FACS, Ba/F3 cells; IC17=0%, DQN0139bb=100%
T9 construct: whole, on cells; also called Ba/F3-HLA-DQ2.5/14mer 1
Text: as §1

[9] = target: T10, HLA-DQ2.5/secalin 2 peptide complex on Ba/F3 cells (human); test: FACS, Ba/F3 cells; IC17=0%, DQN0139bb=100%
T10 construct: whole, on cells; also called Ba/F3-HLA-DQ2.5/secalin 2
Text: as §1

[10] = target: T11, HLA-DQ2.5/alpha 1 gliadin peptide complex on Ba/F3 cells (human); test: FACS, Ba/F3 cells; IC17=0%, DQN0139bb=100%
T11 construct: whole, on cells; also called Ba/F3-HLA-DQ2.5/alpha 1 gliadin; HLA-DQ2.5/a1 gliadin
Text: as §1

[11] = target: T12, HLA-DQ2.5/gamma 4b gliadin peptide complex on Ba/F3 cells (human); test: FACS, Ba/F3 cells; IC17=0%, DQN0139bb=100%
T12 construct: whole, on cells; also called Ba/F3-HLA-DQ2.5/gamma 4b gliadin; HLA-DQ2.5/g4b gliadin
Text: as §1

[12] = target: T13, HLA-DQ2.5/CLIP peptide complex on Ba/F3 cells (human); test: FACS, Ba/F3 cells; IC17=0%, DQN0139bb=100%
T13 construct: whole, on cells; also called Ba/F3-HLA-DQ2.5/CLIP
T13 sequence (P04233 96-124, chain 2 of 2, other chains not shown): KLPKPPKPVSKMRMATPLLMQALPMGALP
Text: as §1

[13] = target: T14, HLA-DQ2.5/avenin 1 peptide complex on Ba/F3 cells (human); test: FACS, Ba/F3 cells; IC17=0%, DQN0139bb=100%
T14 construct: whole, on cells; also called Ba/F3-HLA-DQ2.5/avenin 1
Text: as §1

[14] = target: T15, HLA-DQ2.5/gamma 1 gliadin peptide complex on Ba/F3 cells (human); test: FACS, Ba/F3 cells; IC17=0%, DQN0139bb=100%
T15 construct: whole, on cells; also called Ba/F3-HLA-DQ2.5/gamma 1 gliadin; HLA-DQ2.5/g1 gliadin
Text: as §1

[15] = target: T16, HLA-DQ2.5/alpha 2 gliadin peptide complex on Ba/F3 cells (human); test: FACS, Ba/F3 cells; IC17=0%, DQN0139bb=100%
T16 construct: whole, on cells; also called Ba/F3-HLA-DQ2.5/alpha 2 gliadin; HLA-DQ2.5/a2 gliadin
Text: as §1

[16] = target: T17, HLA-DQ2.5/26mer gliadin peptide complex on Ba/F3 cells (human); test: FACS, Ba/F3 cells; IC17=0%, DQN0139bb=100%
T17 construct: whole, on cells; also called Ba/F3-HLA-DQ2.5/26mer gliadin
Text: as §1

[17] = target: T18, HLA-DQ2.5/omega 1 gliadin peptide complex on Ba/F3 cells (human); test: FACS, Ba/F3 cells; IC17=0%, DQN0139bb=100%
T18 construct: whole, on cells; also called Ba/F3-HLA-DQ2.5/omega 1 gliadin; HLA-DQ2.5/w1 gliadin
Text: as §1

[18] = target: T19, HLA-DQ2.5/hordein 2 peptide complex on Ba/F3 cells (human); test: FACS, Ba/F3 cells; IC17=0%, DQN0139bb=100%
T19 construct: whole, on cells; also called Ba/F3-HLA-DQ2.5/hordein 2
Text: as §1

[19] = target: T20, HLA-DQ2.5/avenin 2 peptide complex on Ba/F3 cells (human); test: FACS, Ba/F3 cells; IC17=0%, DQN0139bb=100%
T20 construct: whole, on cells; also called Ba/F3-HLA-DQ2.5/avenin 2
Text: as §1

[20] = target: T1, HLA-DQ2.5 on HLA-DQ2.5-positive PBMC B …; test: FACS, PBMC B cells; IC17=0%, DQN0139bb=100%
[21] = target: DQ2.5/BC hordein peptide on IHW9023 cells (human); test: cell-based or functional assay
[22] = target: DQ2.5/alpha 1b gliadin peptide on IHW9023 cells (human); test: cell-based or functional assay
[23] = target: DQ2.5/alpha 2 gliadin peptide on IHW9023 cells (human); test: cell-based or functional assay
[24] = target: DQ2.5/omega 2 gliadin peptide on IHW9023 cells (human); test: cell-based or functional assay
[25] = target: DQ2.5/gamma 2 gliadin peptide on IHW9023 cells (human); test: cell-based or functional assay
[26] = target: DQ2.5/gamma 1 gliadin peptide on IHW9023 cells (human); test: cell-based or functional assay
[27] = target: DQ2.5/gamma 4a gliadin peptide on IHW9023 cells (human); test: cell-based or functional assay
[28] = target: HLA-DQ2.5/33mer gliadin peptide on IHW9088 cells (human); test: cell-based or functional assay
[29] = target: DQ2.5/omega 1 gliadin peptide on IHW9023 cells (human); test: cell-based or functional assay
[30] = target: DQ2.5/alpha 1 gliadin peptide on IHW9023 cells (human); test: cell-based or functional assay
[31] = target: T21, HLA-DQ2.5/secalin 1 peptide complex on Ba/F3 cells (human); test: FACS, Ba/F3 cells; IC17=0%, DQN0139bb=100%
T21 construct: whole, on cells; also called Ba/F3-HLA-DQ2.5/secalin 1
Text: as §1

[32] = target: T22, HLA-DQ2.5/avenin 3 peptide complex on Ba/F3 cells (human); test: FACS, Ba/F3 cells; IC17=0%, DQN0139bb=100%
T22 construct: whole, on cells; also called Ba/F3-HLA-DQ2.5/avenin 3
Text: as §1

Binder | % MFI [2] | % MFI [3] | % MFI [4] | % MFI [7] | % MFI [9] | % MFI [10] | % MFI [11] | % MFI [13] | % MFI [14] | % MFI [15] | % MFI [16] | % MFI [17] | % MFI [19] | IC50, Jurkat NFAT-Luc T cell activation [21] | IC50, Jurkat NFAT-Luc T cell activation [22] | IC50, Jurkat NFAT-Luc T cell activation [23] | IC50, Jurkat NFAT-Luc T cell activation [24] | IC50, Jurkat NFAT-Luc T cell activation [26] | IC50, Jurkat NFAT-Luc T cell activation [27] | IC50, Jurkat NFAT-Luc T cell activation [29] | other results
DQN0385ee (antibody, V domains shown, also called DQN0385xx) VH: QEQLEESGGDLVKPGASLTLTCTASGFSFYSSYWICWVRQAPGKGLEWIACIDTGSGSIDYASWVNGRFTISKTSSTTVTLQMTSLTVADTATYFCARDIGIDYNFWGPGTLVTVSS VL: AFELTQTPSFVEAAVGGTVTIKCQATQSISSYLNWYQQKPGQPPKLLIYYASTLASGVPSRFKGSGSGTEFSLTISGVECADAATYYCHYGISYVSFGGGTKVEIK | 59.7% | 56.2% | 18.2% | 20.3% | 32.5% | 9.7% | 53.6% | 19.1% | 57.7% | 70.9% | 70.8% | 16.5% | 28% | 0.0164 µg/mL | 0.64 µg/mL | 0.000264 µg/mL | 0.000758 µg/mL | 0.0217 µg/mL | 0.381 µg/mL |  | % MFI [1]: 61.8%; % MFI [5]: 20.6%; % MFI [6]: 53%; % MFI [8]: 70.7%; % MFI [12]: 4.4%; % MFI [18]: 71.4%; % MFI [20]: 1%; IC50, Jurkat NFAT-Luc T cell activation [25]: 4.9 µg/mL
DQN0139bb (antibody, V domains shown) VH: QSLEESGGRLVTPGTALTLTCTVSGFSLSSYAMGWVRQAPGKGLEYIGWTSPGDSAYYASWTKGRFTISRTSTTVELKITSPTTEDTATYFCARDAAYIGHWAFNLWGPGTLVTVSS VL: DVVMTQTPASVSAPVGGTVTINCQASESIYSNLAWYQQKPGQPPKLLIYGASTLESGVPSRVKGSGYGTQFTLTISDLECADAATYYCQQYYGSSSTAFTFGGGTKVEIK |  |  |  |  |  |  |  |  |  |  |  |  |  | 0.0759 µg/mL | 0.0765 µg/mL | 0.0605 µg/mL | 0.248 µg/mL | 0.119 µg/mL | 0.0769 µg/mL | 0.0719 µg/mL | IC50 (read off the curve) [28]: ~0.03 microgram/mL; IC50, Jurkat NFAT-Luc T cell activation [30]: 0.0735 µg/mL
DQN0344xx (antibody, V domains shown) VH: QSLEESGGGLVKPGGTLTLTCTASGFSFSSSYWMCWVRQAPGKGLEWVACVYGGSDTTYYASWTKGRFTISKGSSTTVALQVTSLTAADTATYFCARDPLNYYYYGELNLWGPGTLVTVSS VL: AVVLTQTASPVSAAVGGTVTIRCQATENIYSGLAWYQQKPGQPPKVLIYYVSTLASGVPSRFKGSGSGTEYTLTISGVQCDDAATYYCQTYHDISNVTFGGGTKVEIK | 42.2% | 107% | 18.8% | 66.6% | 37.6% | 77.1% | 1% | 60.9% | 0.4% | 69.5% | 3.2% | 49.5% | 48.6% |  | 0.0272 µg/mL | 0.00082 µg/mL |  |  |  | 0.0124 µg/mL | % MFI [31]: 52.2%; % MFI [32]: 48.4%; IC50, Jurkat NFAT-Luc T cell activation [30]: 0.00998 µg/mL
